Measurements as given in PMC4989220, “The role of Rab6a and phosphorylation of non-muscle myosin IIA tailpiece in alcohol-induced Golgi disorganization” (Scientific Reports, 2016).
Residue numbers refer to the chain shown, from its start.

B1: Rab6a GTPase (natural protein, UniProt P20340 1-208, looked up)
chain: MSTGGDFGNPLRKFKLVFLGEQSVGKTSLITRFMYDSFDNTYQATIGIDFLSKTMYLEDRTVRLQLWDTAGQERFRSLIPSYIRDSTVAVVVYDITNVNSFQQTTKWIDDVRTERGSDVIIMLVGNKTDLADKRQVSIEEGERKAKELNVMFIETSAKAGYNVKQLFRRVAAALPGMESTQDRSREDMIDIKLEKPQEQPVSEGGCSC
notes: Rab6a GTPase, endogenous in VA-13 cells (HepG2 cells expressing ADH); source: endogenous, VA-13 cells (lysate, Golgi fraction, fixed cells)
B2: Rab6a GTPase (rat hepatocytes) (natural protein, rat (endogenous in primary hepatocytes), UniProt Q9WVB1 1-208, looked up)
chain: B1 chain with T3A, S202N
notes: Rab6a, endogenous in hepatocytes of male Wistar rats; source: endogenous, primary rat hepatocytes (fixed cells, Golgi fraction)

Target: the molecule itself
Assay: Western blot of Golgi membrane fraction (dimer band); Rab6a Western blot of the Golgi fraction (sucrose gradient) from control VA-13 cells and hepatocytes from control rats

Protein	stoichiometry N
B1	2
B2	2
